Laboratory results: patent US20240069033A1 (Chugai, published 2024)
No end group written: not given here. puromycin linker = puromycin spacer joining the C-terminus of the translated peptide to its mRNA (mRNA display); mRNA = not defined here

What was measured:
[1] = biological target: T1, biotinylated splitNanoluc1-8; assay: mRNA display pull-down with biotinylated splitNanoluc1-8, qPCR
T1 chain: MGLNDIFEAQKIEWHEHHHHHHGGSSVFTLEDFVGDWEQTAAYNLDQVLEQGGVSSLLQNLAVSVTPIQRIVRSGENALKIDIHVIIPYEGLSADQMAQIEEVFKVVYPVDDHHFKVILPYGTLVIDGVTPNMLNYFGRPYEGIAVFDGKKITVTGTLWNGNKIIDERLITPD
Procedure: (§1) Each Display molecule before reacting with biotinylated splitNanoluc1-8 was also subjected to qPCR in the same way, and the input nucleic acid amount was calculated.

[2] = biological target: T1, biotinylated splitNanoluc1-8; assay: mRNA display pull-down with biotinylated splitNanoluc1-8 on streptavidin beads, qPCR
Procedure: as §1

MVSGWRLFKKISGSGSGSGSENLYFQGKK-{puromycin linker-mRNA} (reading uncertain; also: mRNA reverse transcribed before assay, mRNA display molecule) [splitNanoluc-10] was tested, and the “fold lower recovery rate than the splitNanoluc9-10 fusion peptide” value [1] was at least 300 times and the binding result [2] was “no binding”.

For MGSMLFRVTINSGSGSGSGSENLYFQGKK-{puromycin linker-mRNA} (reading uncertain; also: mRNA reverse transcribed before assay, mRNA display molecule) [splitNanoluc-9], the “fold lower recovery rate than the splitNanoluc9-10 fusion peptide” value [1] was at least 300 times and the binding result [2] was “no binding”.
